Data on eight molecules can be found in patent US20230192831A1.

Test [1] deals with recombinant human GREM1 (hGREM1-His; C-terminal 10His tagged, R&D, #5190-GR) (human) (UniProt O60565). The test is described as follows: BLI Octet, captured mAb, 100 nM GREM1 without vs with 5 uM heparin. A general note: In BLI a coated tip is dipped into the sample, and binding shifts an interference pattern.
Test [2] has the same target. Put plainly: BLI Octet, captured mAb, 100 nM GREM1 + 5 uM heparin.
Test [3] has the same target. Put plainly: cell-based or functional assay.
The target is the same in test [4]. Put plainly: BLI Octet, captured mAb, 100 nM GREM1.

recombinant human GREM1 (hGREM1-His; C-terminal 10His tagged, R&D, #5190-GR) (human), sequence (O60565 other isoform, or with tags, fused parts or gaps limits assumed, form in doubt): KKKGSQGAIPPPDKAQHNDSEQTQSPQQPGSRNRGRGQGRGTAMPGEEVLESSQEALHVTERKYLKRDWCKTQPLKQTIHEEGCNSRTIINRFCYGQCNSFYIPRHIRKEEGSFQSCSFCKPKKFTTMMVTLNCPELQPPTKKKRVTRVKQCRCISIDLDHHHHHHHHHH

B1: H4H2895N (antibody, human IgG4, V domains shown)
VH: EVQLVESGGGLVQPGGSLRLSCAASGFTVSSNYMSWVRQAPGKGLEWVSVIYSGGNTYYADSVKGRFTISRHNSKNTLYLQMNSLRAEDTAVYYCARDLGIKSDYWGQGTLVTVSS
VL: EIVLTQSPDFQSVTPKEKVTITCRASQSIGTTLHWYQQKPDQSPKLLIKYVSQSLSGVPSRFSGSGSGTDFTLTINSLEAEDAATYYCHQSSSLPWTFGQGTKVEIK
In the case of B1, in test [1], the Reduction in Signal from Heparin at 30 sec was -0.07 nm and the Reduction in Signal from Heparin at 300 sec is -0.04 nm. In test [2], the Binding Signal with 30 sec Association (nm) was 0.22 nm and the Binding Signal with 300 sec Association (nm) was 0.54 nm. In test [3], the IC50 [M], W-20-17/BRE-luc luciferase bioassay, 100 pM hBMP4 and 10 nM hGREM1-His came out at 5.8e-10 M; the hGREM1-His Inhibition IC50, M; W-20-17 cell differentiation assay (alkaline phosphatase) was determined as 1.9 nM. In addition, in test [4], the Binding Signal with 30 sec Association (nm) came out at 0.15 nm and the Binding Signal with 300 sec Association (nm) came to 0.5 nm.

B2: H4H2783N2 (antibody, human IgG4, V domains shown)
VH: EVQLLESGGGLVQPGGSLRLSCAASGFTFSSYVMNWVRQAPGKGLEWVSAISGSGGSTYYADSVKGRSTISRDNSKNTLYLQMNSLRAEDTAIYYCAKGDIAAIVFDAFDIWGQGTVVTVSS
VL: DIQMTQSPSSLSASVGDRVTITCQASQDISSALNWYQHKPGKAPKLLIYDASYLETGVPSRFSGSGSGTDFTFTISSLQPEDIATYYCQQYDNLPYTFGQGTKLEIK
On to B2, for which, in test [1], the Reduction in Signal from Heparin at 30 sec came to 0.28 nm and the Reduction in Signal from Heparin at 300 sec was 0.18 nm. In addition, in test [2], the Binding Signal with 30 sec Association (nm) is 0.01 nm and the Binding Signal with 300 sec Association (nm) stood at 0.29 nm. For the same molecule, in test [3], the IC50 [M], W-20-17/BRE-luc luciferase bioassay, 100 pM hBMP4 and 10 nM hGREM1-His worked out at 1.3e-09 M; the hGREM1-His Inhibition IC50, M; W-20-17 cell differentiation assay (alkaline phosphatase) is 5.6 nM. In test [4], the Binding Signal with 30 sec Association (nm) is 0.29 nm and the Binding Signal with 300 sec Association (nm) came to 0.47 nm.

B3: H4H2780N (antibody, human IgG4, V domains shown)
VH: EVQLVESGGGLVKPGGSLRLSCAASGFTFSTYSMNWVRQAPGKGLEWVSSISSGSSYIYYTDSVKGRFTISRDNAKNSLYLQMNSLRAEDTAVYYCARFGSYYYFGFDVWGQGTTVTVSS
VL: DIQMTQSPSSLSASVGDRVTITCRASQGISNYLAWYQQKPGKVPKLLIFSASTLQSGVPSRFSGSGSGPDFTLTVSSLQPEDVATYYCQKYNSAPFAFGPGTKVDIK
For B3, in test [1], the Reduction in Signal from Heparin at 30 sec was 0 nm and the Reduction in Signal from Heparin at 300 sec is 0 nm. Further, in test [2], the Binding Signal with 30 sec Association (nm) is 0.13 nm and the Binding Signal with 300 sec Association (nm) came to 0.58 nm. For the same molecule, the IC50 [M], W-20-17/BRE-luc luciferase bioassay, 100 pM hBMP4 and 10 nM hGREM1-His in test [3] is 49. Besides, in test [4], the Binding Signal with 30 sec Association (nm) turned out to be 0.13 nm and the Binding Signal with 300 sec Association (nm) came out at 0.58 nm.

B4: H4H2926N (antibody, human IgG4, V domains shown)
VH: EVQLVESGGGLVQTGRSLRLSCAASGFTFDDYAMNWVRQAPGKGLEWVSGISWNSGNIGYADSVKGRFTISRDNAKNSLYLQMNSLRAEDTALYYCVKYIGQQLVQDYFDYWGQGTLVTVSS
VL: DIQMTQSPSSLSASVGDRVTITCQASQDITNYLNWYQQRPGKAPKLLIYDAFNLERGVPSRFSGSGYGTYFTFTISSLQPEDIAIYYCQQYDNLPLTFGGGTKVEIE
With B4, in test [1], the Reduction in Signal from Heparin at 30 sec was determined as 0.16 nm and the Reduction in Signal from Heparin at 300 sec turned out to be 0.07 nm. Also, in test [2], the Binding Signal with 30 sec Association (nm) turned out to be 0.07 nm and the Binding Signal with 300 sec Association (nm) worked out at 0.42 nm. In test [3], the IC50 [M], W-20-17/BRE-luc luciferase bioassay, 100 pM hBMP4 and 10 nM hGREM1-His was 1.2e-09 M; the hGREM1-His Inhibition IC50, M; W-20-17 cell differentiation assay (alkaline phosphatase) is 13 nM. Moreover, in test [4], the Binding Signal with 30 sec Association (nm) was found to be 0.23 nm and the Binding Signal with 300 sec Association (nm) was determined as 0.49 nm.

B5: H4H2892N (antibody, human IgG4, V domains shown)
VH: QVQLVESGGGVVQPGRSLRLSCAASGFTFSSYGIHWVRQAPGKGLEWVAILWYDGSNKYYADSVKGRFTISRDNSKTTLYLQMNSLRAEDTAVYYCARENYNDLNFDLWGRGTLVTVSS
VL: DIQLTQSPSFLSASVGDRVTITCWASQGISSYLAWYQHKPGKAPKLLIYAASTLQSGVPSRFSGSGSGIEFTLTISSLQPEDFATYYCQQLKSYPPWTFGQGTKVEIR
Regarding B5, in test [1], the Reduction in Signal from Heparin at 30 sec came out at 0.05 nm and the Reduction in Signal from Heparin at 300 sec came out at 0 nm. Also, in test [2], the Binding Signal with 30 sec Association (nm) stood at 0.15 nm and the Binding Signal with 300 sec Association (nm) amounted to 0.49 nm. In addition, in test [3], the IC50 [M], W-20-17/BRE-luc luciferase bioassay, 100 pM hBMP4 and 10 nM hGREM1-His turned out to be 9.5e-10 M; the hGREM1-His Inhibition IC50, M; W-20-17 cell differentiation assay (alkaline phosphatase) was determined as 4.4 nM. For the same molecule, in test [4], the Binding Signal with 30 sec Association (nm) is 0.2 nm and the Binding Signal with 300 sec Association (nm) stood at 0.49 nm.

B6: H4H6232P (antibody, human IgG4, V domains shown)
VH: QVQLVQSGAEVKKPGASVKVSCKVSGYTLTELSMHWVRQAPGKGLEWMGGFDPEDGETIYAQKFQGRLTMTEDTSTDTAYMELSSLRSEDTAVYYCATDDYDILTSYPYNMDVWGQGTTVTVSS
VL: DIQMTQSPSSLSASVGDRVTITCRASQSINNYLNWYQQKPGKAPKLLIYAASSLQSGVPSRFSGSGSGTDFTLTISSLQPEDFGTYYCQQSDSTPFTFGPGTKVDIK
Regarding B6, in test [1], the Reduction in Signal from Heparin at 30 sec is 0.27 nm and the Reduction in Signal from Heparin at 300 sec turned out to be 0.02 nm. In test [2], the Binding Signal with 30 sec Association (nm) was found to be 0.06 nm and the Binding Signal with 300 sec Association (nm) came out at 0.46 nm. Besides, in test [3], the IC50 [M], W-20-17/BRE-luc luciferase bioassay, 100 pM hBMP4 and 10 nM hGREM1-His came out at 7.8e-10 M; the hGREM1-His Inhibition IC50, M; W-20-17 cell differentiation assay (alkaline phosphatase) was 4.5 nM. For the same molecule, in test [4], the Binding Signal with 30 sec Association (nm) came out at 0.33 nm and the Binding Signal with 300 sec Association (nm) came to 0.48 nm.

B7: H4H2889N (antibody, human IgG4, V domains shown)
VH: QVQLQESGPGLVKPSETLSLTCTVSGGSISNSYWSWIRQPPGKGLEWIGYIYYSGNTNYNPSLKSRVTISVDTSKNQFSLKLSSVTAADTAVYYCARVNDYSNYDSYYYGMDVWGQGTTVTVSS
VL: AIQMTQSPSSLSASVGDRVTITCRASQGIRNDLGWYQQKPGKAPKLLIYAASSLQSGVPSRFSGSGSGTDFTLTISSLQPEDFATYYCLQDYNYPPTFGQGTKVDIK
As for B7, in test [1], the Reduction in Signal from Heparin at 30 sec was determined as 0.15 nm and the Reduction in Signal from Heparin at 300 sec is 0.02 nm. Further, in test [2], the Binding Signal with 30 sec Association (nm) came out at 0.05 nm and the Binding Signal with 300 sec Association (nm) was 0.44 nm. Also, in test [3], the IC50 [M], W-20-17/BRE-luc luciferase bioassay, 100 pM hBMP4 and 10 nM hGREM1-His amounted to 1.2e-09 M; the hGREM1-His Inhibition IC50, M; W-20-17 cell differentiation assay (alkaline phosphatase) turned out to be 5.4 nM. In test [4], the Binding Signal with 30 sec Association (nm) worked out at 0.2 nm and the Binding Signal with 300 sec Association (nm) stood at 0.46 nm.

B8: H4H6269P (antibody, human IgG4, V domains shown)
VH: QVQLQESGPGLVKPSQTLSLTCTVSGGSISSGGYYWTWIRQHPGKGLEWIGYIYYSGSTYYNPSLKSRVTMSVDTSKNQFSLKLSSVTAADTAVYYCARLLDFDYWGQGTLVTVSS
VL: AIQMTQSPSSLSASVGDRVTITCRASQGIRNDLGWYQQKPGKAPKLLIYAASSLQSGVPSRFSGSGSGRDFTLTISSLQPEDFASYYCLQDHNYPLTFGGGTKVEIK
As for B8, in test [1], the Reduction in Signal from Heparin at 30 sec was found to be 0.01 nm and the Reduction in Signal from Heparin at 300 sec is 0.08 nm. Also, in test [2], the Binding Signal with 30 sec Association (nm) turned out to be 0.14 nm and the Binding Signal with 300 sec Association (nm) is 0.52 nm. In test [4], the Binding Signal with 30 sec Association (nm) amounted to 0.15 nm and the Binding Signal with 300 sec Association (nm) turned out to be 0.6 nm.
